According to paper PMC5372742, “Protection of the Queuosine Biosynthesis Enzyme QueF from Irreversible Oxidation by a Conserved Intramolecular Disulfide” (Biomolecules, 2017):

Substrate: N#Cc1c[nH]c2nc(N)[nH]c(=O)c12
Assay: steady-state kinetics, fluorescence assay of product NADP+
Type: biochemical, Bacillus subtilis
Conditions: co-substrate NADPH

B1: B. subtilis QueF (Bacillus subtilis subsp. subtilis str. 168; E98Q) (protein)
chain: MTTRKESELEGVTLLGNQGTNYLFEYAPDVLESFPNKHVNRDYFVKFNCPEFTSLCPKTGQPDFATIYISYIPDEKMVESKSLKLYLFSFRNHGDFHQDCMNIIMNDLIELMDPRYIEVWGKFTPRGGISIDPYTNYGKPGTKYEKMAEYRMMNHDLYPETIDNR
notes: queF gene in pET-30Xa, expressed in E. coli BL21(DE3); ~160 amino acids, single T-fold domain, homodecamer; active sites at intersubunit interfaces
  Km: 67 µM
  kcat: 0.0006 s⁻¹
